The values that follow come from patent US20210101945A1 (University of Washington, published 2021).

Series [1] concerns the molecule itself. Kind of series: SAXS against the parallel homodimer design model. The protocol:
(§1) Samples were purified by gel filtration in 20 mM Tris pH 8.0 at room temperature, 150 mM NaCl and 2% glycerol; fractions preceding the void volume of the column were used as blanks for buffer subtraction. Scattering measurements were performed at the SIBYLS 12.3.1 beamline at the Advanced Light Source. The X-ray wavelength (λ) was 1 Å, and the sample-to-detector distance of the Mar 165 detector was 1.5 m, corresponding to a scattering vector q (q=4πsin θ/λ, where 2θ is the scattering angle) range of 0.01 to 0.3 Å−1. Data sets were collected using exposures of 0.5, 1, and 6 seconds at 12 keV. […] For each sample, data was collected for at least two different concentrations to test for concentration-dependent effects; “high” concentration samples ranged from 3-7 mg/ml and “low” concentration samples ranged from 1-2 mg/ml. […] FoXS was used to compare design models to experimental scattering profiles and calculate quality of fit (X) values. For the design models, extra residues introduced by the expression vector were added to the computational models using Rosetta™ Remodel so that the design sequence matched that of the experimental sample. To capture the conformational flexibility of these extra tag residues in solution, 100 independent models were generated per design. […]

Series [2] concerns the molecule itself. Briefly: X-ray crystal structure; homodimer. An excerpt:
(§2) The optimum conditions for crystallization of the different designs were found as follows: 2L6HC3_6, 0.2 M Sodium Fluoride, 0.1 M MES pH 5.5 and 20% PEG 400; 2L6HC3_12, 2.2 M Sodium Malonate pH 5.0; 2L6HC3_13, 0.06 M Citric acid, 0.04 M BIS-TRIS propane pH 4.1 and 16% PEG 3,350; 2L8HC4_12, 0.2 M Sodium Acetate trihydrate, 0.1 M Tris hydrochloride pH 8.5 and 30% PEG 4,000; 3L6HC2_2, 0.1 M Sodium Acetate trihydrate pH 4.5 and 3.0 M Sodium chloride; 2L4HC2_23, 0.2 M Lithium chloride and 20% PEG 3,350; 2L4HC2_9, 0.1 M Sodium citrate tribasic dehydrate […]; 2L4HC2_11, 0.1 M Tris pH 8.5 and 2.0 M Ammonium sulfate; 5L6HC3_1, 0.1 M acid pH 3.5 and 3.0 M Sodium chloride; and 2L4HC2_24 was concentrated to 20 mg/ml and crystallized in 0.1 M Citric acid pH 3.5, 2.0 M Ammonium sulfate. […]
(§3) The crystals of the designed proteins were placed in a reservoir solution containing 15 to 20% (v/v) glycerol, and then flash-cooled in liquid nitrogen. […] All the design structures were determined by the molecular-replacement method with the program PHASER within the Phenix suite using the design models as the initial search model. […] Root-mean-square deviation differences from ideal geometries for bond lengths, angles and dihedrals were calculated with Phenix. The overall stereochemical quality of all final models was assessed using the program MOLPROBITY.

Series [3] deals with the molecule itself. Kind of series: X-ray crystal structure (3.8 Å) and SAXS; homotetramer. The protocol:
The crystals of the designed proteins were placed in a reservoir solution containing 15 to 20% (v/v) glycerol, and then flash-cooled in liquid nitrogen. The X-ray data sets were collected at the Berkeley Center for Structural Biology beamlines 5.0.1, 8.2.1 and 8.2.2 of the Advanced Light Source at Lawrence Berkeley National Laboratory (LBNL). Data sets were indexed and scaled using HKL2000. All the design structures were determined by the molecular-replacement method with the program PHASER within the Phenix suite using the design models as the initial search model. The atomic positions obtained from molecular replacement and the resulting electron density maps were used to build the design structures and initiate crystallographic refinement and model rebuilding. Structure refinement was performed using the phenix.refine program. Manual rebuilding using COOT and the addition of water molecules allowed construction of the final models. Root-mean-square deviation differences from ideal geometries for bond lengths, angles and dihedrals were calculated with Phenix. The overall stereochemical quality of all final models was assessed using the program MOLPROBITY.
Samples were purified by gel filtration in 20 mM Tris pH 8.0 at room temperature, 150 mM NaCl and 2% glycerol; fractions preceding the void volume of the column were used as blanks for buffer subtraction. […]

Series [4] deals with the molecule itself. Kind of series: SAXS, design model fit to the scattering data with FoXS. The protocol: as §1
Series [5] deals with the molecule itself. Kind of series: X-ray crystal structure; homotrimer.
From the text: as §2, §3

Series [6] concerns the molecule itself. Kind of series: oligomeric state of the purified design, and SAXS; antiparallel homodimer. As for the experimental part:
(§4) Samples were purified by gel filtration in 20 mM Tris pH 8.0 at room temperature, 150 mM NaCl and 2% glycerol; fractions preceding the void volume of the column were used as blanks for buffer subtraction. Scattering measurements were performed at the SIBYLS 12.3.1 beamline at the Advanced Light Source. The X-ray wavelength (λ) was 1 Å, and the sample-to-detector distance of the Mar 165 detector was 1.5 m, corresponding to a scattering vector q (q=4πsin θ/λ, where 2θ is the scattering angle) range of 0.01 to 0.3 Å−1. Data sets were collected using exposures of 0.5, 1, and 6 seconds at 12 keV. […] For each sample, data was collected for at least two different concentrations to test for concentration-dependent effects; “high” concentration samples ranged from 3-7 mg/ml and “low” concentration samples ranged from 1-2 mg/ml. […] FoXS was used to compare design models to experimental scattering profiles and calculate quality of fit (X) values. For the design models, extra residues introduced by the expression vector were added to the computational models using Rosetta™ Remodel so that the design sequence matched that of the experimental sample. To capture the conformational flexibility of these extra tag residues in solution, 100 independent models were generated per design. These 100 models were then clustered by Rosetta™, and to avoid bias, the cluster center of the largest cluster was selected as the single representative model used for fitting to experimental data.

Series [7] concerns the molecule itself. Briefly: X-ray crystal structure superimposed on the design model; homotrimer.
From the text: as §2, §3

Series [8] concerns the molecule itself. Kind of series: SAXS against the homotetramer design model. The protocol: as §4
Series [9] deals with the molecule itself. Briefly: characterisation of the purified design (method not given); self-association.
Series [10] concerns the molecule itself. Kind of series: oligomeric state and CD of the synthetic peptide in PBS; self-association.
Series [11] concerns the molecule itself. Briefly: X-ray crystal structure superimposed on the design model; homodimer.
From the text: as §2, §3

B1: 3L6HC2_7 (designed binder)
chain: SILELAHESNRRALEMASRANREAMKAAREMIRAASEAARRAGSSNDKDSLRMIEEALRLALRMIEETNKKAVRMVLENNRKMVEAEKKKLSEEEIKRIAKETEDRMREIARRASEEARRLAEEIKREADYRSGS
notes: Monomer subunit of a designed parallel right-handed six-helix C2 homodimer; entries pair it with itself
In the case of B1, the binding result in [1] is on record as “binds”.

B2: 2L4HC2_24 (designed binder)
chain: GTDTDELLRLAKEQAELLKEIKKLVEEIARLVKEIQEDPSDELLKTLAELVRKLKELVEDMERSMKEQLYIIKKQKS
notes: Monomer subunit of a designed left-handed C2 homodimer; entries pair it with itself
As to B2, the binding result in series [2] is on record as “binds”.

B3: 2L8HC4_12 (designed binder)
chain: GTAIEANSRMLKALIEIAKAIWKALWANSLLLEATSRGDTERMRQWAEEAREIYKEAKKIIDEADEIVKEAKERHD
notes: Monomer subunit of a designed left-handed C4 homotetramer; entries pair it with itself; also called lefthanded tetramer
Turning to B3, the binding result in series [3] is on record as “binds”.

B4: 5L4HC2_12 (designed binder)
chain: GTETKKLVEEVERALRELLKTSEDLVRKVEKALRELLELIRRGGTKDKIEEKIRRVLEEIKRELERQKRKIEDVLRQIKEELYRS
notes: Monomer subunit of a designed untwisted C2 homodimer; entries pair it with itself
In the case of B4, in [4], the binding result is recorded as “binds”.

B5: 2L6HC3_12 (designed binder)
chain: GTKYELRRALEELEKALQELREMLRKLKESLEELKKNPSEDALVRNNELIVEVLRVIVEVLSIIARVLEINARSD
notes: Monomer subunit of a designed left-handed C3 homotrimer; entries pair it with itself
As to B5, the binding result in series [5] is “binds”.

B6: 2L6Hanti_4 (designed binder)
chain: SRRLELAARINKAAAENARSAIEIQELAARLADELSSSKKVIDFARATTEVLRMSVKLLKLSLEMLEEAARQDGRSEEVRYLAEESKKILEEARKALEDADRLTKRIEEEGS
notes: Monomer subunit of a designed left-handed antiparallel homodimer; entries pair it with itself
Regarding B6, the binding result in [6] is recorded as “binds”.

B7: 2L6Hanti_3 (designed binder)
chain: SEKARIAVENLEAALRLNRAAAEMQKSAIKIMDDNRSDEKALRYLRLTTKVLRMSVELLRASLELAEKALREEGSDDSAEKVRKEAEEILKESTEILKEADKETKRADEEGS
notes: as for B6
For the protein B7, the binding result in series [6] is reported as “binds”.

B8: 2L6HC3_13 (designed binder)
chain: GTKYELRRALEELEKALRELKKSLDELERSLEELEKNPSEDALVENNRLNVENNKIIVEVLRIIAEVLKINAKSD
notes: Monomer subunit of a designed left-handed C3 homotrimer; entries pair it with itself; also called AAXX
On to B8, for which, in [7], the binding result was “binds”.

B9: 5L8HC4_6 (designed binder)
chain: GSKDTEDSRKIWEDIRRLLEEARKNSEEIWKEITKNPDTSEIARLLSEQLLEIAEMLVRIAELLSRQTEQR
notes: Monomer subunit of a designed untwisted C4 homotetramer; entries pair it with itself
Turning to B9, the binding result in [8] is given as “binds”.

B10: 2L6Hanti_1 (designed binder)
chain: SDYLRLATEHNKLAVEANRLAIELAKSAVELAETDPSKTALEHAELAARLLEMMVQFTKAAQELTREAIRKEGRNEESEKVLRKSKEAYKESEKALEDARRLLDELRKKGS
notes: Monomer subunit (three helices) of a designed left-handed antiparallel homodimer; entries pair it with itself
Consider B10, for which the binding result in series [6] is listed as “binds”.

B11: 3L6HC2_4 (designed binder)
chain: SALEKIAKLIIEAARLSAELARRAARASAEMARKAIEAVSEERGSESLLKIVADLIVESQEAVVRLIIESQQIAAKLAEDLIRAAKEAASDESKMEEVAKEVQERAERAARDIERKLKRVLEELDYKLKESRDGS
notes: as for B1
B11: the binding result in series [1] is reported as “binds”.

B12: 2L6Hanti_5 (designed binder)
chain: TDVLRIAAENLKAAVELAKAALEMAKSAIEIAKTLTEDDEALKFARAAAEVLRMAAKLLKLSIELARKAAEEEGSDDEVRYILDEARKQADELREALKKVDEIMKELDKRGS
notes: as for B6
As to B12, the binding result in series [6] is on record as “binds”.

B13: 2L4HC2_9 (designed binder)
chain: GTSDYIIEQIQRDQEEARKKVEEAEERLERVKEASKRGVSSDQLLDLIRELAEIIEELIRIIRRSNEAIKELIKNQS
notes: Monomer subunit (helical hairpin) of a designed left-handed C2 homodimer; entries pair it with itself; Expressed in E. coli with a His tag (C-terminal, or N-terminal and thrombin-cleavable); Underlined residues are said to be optional, but the underlining is not visible
Consider B13, for which the binding result in series [9] is “binds”.

B14: 5L8HC4_1 (designed binder)
chain: GSKVEELLRKSEEAAERAKRELERLLEESERIVAEAQALAEKYESQKVWVRILIELIRATNRMLAEIARILLEMIEVTNRMIAESTK
notes: as for B9
For B14, the binding result in series [8] is recorded as “binds”.

B15: 2L6Hanti_2 (designed binder)
chain: SEELRKAAENNELAVRLAEAALRMARSALHLFEENPSDEMLKFLELAMEVAKMAAELLKASLKMLKKAAEERGSDESVKYLADKSRDIMRQITEELKKLEEEAKRAQKRGS
notes: as for B6
Take B15: the binding result in series [6] is recorded as “binds”.

B16: 2L6HC3_13_inner (peptide)
peptide: Ac-TERENNYRNEENNRKIEEEIREIKKEIKKNKERD-NH2
notes: Synthetic inner-ring-only peptide; reported as unfolded and monomeric in isolation; also called inner ring peptide of 2L6HC3_13
For the protein B16, the binding result in [10] was “no binding”.

B17: 5L6HC3_1 (designed binder)
chain: SEELRAVADLQRLNIELARKLLEAVARLQELNIDLVRKTSELTDEKTIREEIRKVKEESKRIVEEAEEEIRRAKEESRYIADESRGS
notes: Monomer subunit of a designed untwisted C3 homotrimer; entries pair it with itself; also called untwisted trimer
Consider B17, for which the binding result in series [5] was “binds”.

B18: 2L4HC2_23 (designed binder)
chain: GTRTEIIRELERSLREQEELAKRLKELLRELERLQREGSSDEDVRELLREIKELVEEIEKLAREQKYLVEELKRQD
notes: as for B2
Consider B18, for which the binding result in [11] is given as “binds”.

B19: 2L6HC3_6 (designed binder)
chain: GTKYKIKETLKRLEDSLRELRRILEELKEMLERLEKNPDKDVIVEVLKVIVKAIEASVENQRISAENQKALAESD
notes: Monomer subunit of a designed left-handed C3 homotrimer; entries pair it with itself; also called XXBB
Regarding B19, the binding result in [7] is recorded as “binds”.

B20: 5L8HC4_2 (designed binder)
chain: SEQLKEIARILIKLIESLTRFILEVARILIELIEETQRLIVASTDSDESELERIARESKKKAKKALDELKKIVDDQRREAKKAIEELEYDGS
notes: as for B9
As for B20, the binding result in series [8] is reported as “binds”.

B21: 2L4HC2_11 (designed binder)
chain: GSEDYKLREAQRELDKQRKDTEEIRKRLKEIQRLTDERTSTADELIKELREIIRRLQEQSEKLREIIEELEKIIRKR
notes: as for B2
As to B21, the binding result in [2] is “binds”.
